Test results published in patent publication US20190040149A1 (Innovent, published 2019).

T1: murine PD-1 on CHO cells (mouse, UniProt Q02242 25-288)
T1 sequence: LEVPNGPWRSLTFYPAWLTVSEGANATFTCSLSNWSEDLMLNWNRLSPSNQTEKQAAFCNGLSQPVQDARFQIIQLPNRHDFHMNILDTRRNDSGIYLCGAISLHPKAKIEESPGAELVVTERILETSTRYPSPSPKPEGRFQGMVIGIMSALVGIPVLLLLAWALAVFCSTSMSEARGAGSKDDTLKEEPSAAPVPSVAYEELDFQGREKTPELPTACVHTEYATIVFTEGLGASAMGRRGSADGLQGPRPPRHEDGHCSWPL

T2: murine PD-1 (soluble antigen of the MSD assay) (mouse, UniProt Q02242 25-169, limits assumed)
T2 construct: also called mouse PD-1
T2 sequence: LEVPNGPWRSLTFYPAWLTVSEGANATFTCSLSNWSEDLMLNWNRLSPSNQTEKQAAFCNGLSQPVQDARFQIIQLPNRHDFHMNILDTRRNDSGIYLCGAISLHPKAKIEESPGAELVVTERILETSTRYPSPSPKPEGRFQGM


How the values were obtained:
murine PD-1 on CHO cells = biological target: T1, murine PD-1 on CHO cells; test: flow cytometry on CHO cells with murine PD-1
Experimental: (§1) Cells are then washed 3×, and are incubated with a secondary antibody (PE-labelled, at final concentration of 5 μg/ml) in PBS 1% BSA for 30 min on ice (protected from light). Cells are washed 3× and analyzed via flow cytometry. Flow cytometry is performed on an Accuri C6 system (BD Biosciences) and MFIs are calculated on the C6 software. EC50 s are calculated on Graphpad software.

[1] = biological target: T3, human PD-1 on cells (CHO cells; T cells in the mixed lymphocyte reaction) (human, UniProt Q15116 25-288); test: cell-based or functional assay
human PD-1_HIS = biological target: T4, human PD-1_HIS (human, UniProt Q15116 25-167, limits assumed); test: bio-layer interferometry (ForteBio), human PD-1_HIS in solution, IgG on sensor tip
T4 construct: not shown: His tag
Experimental: Briefly, ForteBio affinity measurements were performed by loading IgGs online onto AHQ sensors. Sensors were equilibrated off-line in assay buffer for 30 min and then monitored on-line for 60 seconds for baseline establishment. Sensors with loaded IgGs were exposed to 100 nM antigen for 5 min, afterwards they were transferred to assay buffer for 5 min for off-rate measurement. Kinetics was analyzed using the 1:1 binding model.

[2] = biological target: T3, human PD-1 on cells (CHO cells; T cells …); test: flow cytometry on CHO cells with human PD-1 (n=1)
Experimental: as §1

[3] = biological target: T5, human PD-1 (soluble antigen of the MSD assay, b-PD-1 monomer) (human, UniProt Q15116 25-170, limits assumed, biotinylated (b-PD-1), site not stated); test: MSD solution equilibrium titration, avid KD
T5 construct: The antigen format of the 'avid' measurement is not described
Experimental: (§2) Equilibrium affinity measurements are performed as previously described (Estep, P., et al., MAbs, 2013. 5(2): p. 270-8). Solution equilibrium titrations (SET) are performed in PBS+0.1% IgG-Free BSA (PBSF) where antigen (b-PD-1 monomer) is held constant at 10-100 pM and is incubated with 3- to 5-fold serial dilutions of Fab or mAbs starting at 5-100 nM (experimental condition is sample dependent). Antibodies diluted at 20 nM in PBS are coated onto standard bind MSD-ECL plates overnight at 4° C. or at room temperature for 30 min. Plates are blocked with BSA for 30 min whilst shaking at 700 rpm. Plates are then washed 3× with wash buffer (PBSF+0.05% Tween 20). SET samples are applied and incubated on the plates for 150 s with shaking at 700 rpm followed by one wash. Antigen captured on a plate is detected with 250 ng/mL sulfotag-labeled streptavidin in PBSF by incubation on the plate for 3 min. The plates are washed three times with wash buffer and are then read on the MSD Sector Imager 2400 instrument using 1× Read Buffer T with surfactant. The percent free antigen is plotted as a function of titrated antibody in Prism and fit to a quadratic equation to extract the KD. To improve throughput, liquid handling robots are used throughout MSD-SET experiments, including for SET sample preparation.

[4] = biological target: T3, human PD-1 on cells (CHO cells; T cells …); test: flow cytometry, remaining PD-L2-FITC signal after 100 nM antibody; competitor PD-L2-FITC
Experimental: CHO cells 0.2×10⁶ are incubated with the experimental antibody (100 nM) for 30 min in PBS 1% BSA on ice. […] Cells are washed 3× and analyzed via flow cytometry. Flow cytometry is performed on an Accuri C6 system (BD Biosciences) and MFIs are calculated on the C6 software. EC50 s are calculated on Graphpad software.

[5] = biological target: T5, human PD-1 (soluble antigen of the MSD …); test: MSD solution equilibrium titration, monovalent KD
Experimental: as §2

[6] = biological target: T2, murine PD-1 (soluble antigen of the MSD …); test: MSD solution equilibrium titration, monovalent KD
Experimental: as §2

[7] = biological target: T3, human PD-1 on cells (CHO cells; T cells …); test: cell-based or functional assay; remark: listed apart in the source
[8] = biological target: T2, murine PD-1 (soluble antigen of the MSD …); test: MSD solution equilibrium titration, avid KD
Experimental: as §2

T4 sequence (Q15116 25-167 limits assumed): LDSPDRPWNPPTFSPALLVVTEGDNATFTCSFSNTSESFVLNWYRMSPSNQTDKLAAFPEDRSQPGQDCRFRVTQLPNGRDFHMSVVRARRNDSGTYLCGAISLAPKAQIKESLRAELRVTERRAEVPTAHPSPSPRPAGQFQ
T5 sequence (Q15116 25-170 limits assumed): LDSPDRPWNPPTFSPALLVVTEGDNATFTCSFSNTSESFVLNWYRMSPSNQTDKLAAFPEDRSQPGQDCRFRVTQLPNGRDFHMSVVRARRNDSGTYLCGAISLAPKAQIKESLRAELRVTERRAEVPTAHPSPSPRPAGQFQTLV
T3 sequence (Q15116 25-288 limits assumed): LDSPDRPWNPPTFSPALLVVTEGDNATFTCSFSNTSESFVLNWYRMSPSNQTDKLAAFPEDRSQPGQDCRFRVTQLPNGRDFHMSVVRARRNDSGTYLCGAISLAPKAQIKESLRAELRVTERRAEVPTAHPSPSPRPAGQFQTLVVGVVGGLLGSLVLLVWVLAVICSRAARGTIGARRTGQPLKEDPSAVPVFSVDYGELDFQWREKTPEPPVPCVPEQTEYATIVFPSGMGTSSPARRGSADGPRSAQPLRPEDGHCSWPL

Binder | EC50 (murine PD-1 on CHO cells) [nM] | IFNg secretion fold change vs. IgG control, 0.01 nM IgG [1] [fold] | IFNg secretion fold change vs. IgG control, 0.1 nM IgG [1] [fold] | IFNg secretion fold change vs. IgG control, 1 nM IgG [1] [fold] | IFNg secretion fold change vs. IgG control, 10 nM IgG [1] [fold] | IFNg secretion fold change vs. IgG control, 100 nM IgG [1] [fold] | IFNγ in supernatant, 0.01 nM IgG [1] [pg/mL] | IFNγ in supernatant, 0.1 nM IgG [1] [pg/mL] | IFNγ in supernatant, 1 nM IgG [1] [pg/mL] | IFNγ in supernatant, 10 nM IgG [1] [pg/mL] | IFNγ in supernatant, 100 nM IgG [1] [pg/mL] | Kd (human PD-1_HIS) [nM] | EC50 [2] [nM] | Kd [3] [nM] | MFI (PD-L2-FITC) [4] [MFI] | Kd [5] [nM] | Kd [6] [nM] | IL-2 in supernatant, 0.01 nM IgG [7] [pg/mL] | IL-2 in supernatant, 0.1 nM IgG [7] [pg/mL] | IL-2 in supernatant, 1 nM IgG [7] [pg/mL] | other results
Antibody A, IgG1 format expressed in yeast (antibody, V domains shown, Tested in IgG1 format, expressed in yeast) VH: QVQLVQSGAEVKKPGASVKVSCKASGYTFTSYYMHWVRQAPGQGLEWMGIINPSGGSTSYAQKFQGRVTMTRDTSTSTVYMELSSLRSEDTAVYYCAKEGVADGYGLVDVWGQGTMVTISS VL: EIVLTQSPATLSLSPGERATLSCRASQSVSSYLAWYQQKPGQAPRLLIYDASKRATGIPARFSGSGSGTDFTLTISSLEPEDFAVYYCDQRNNWPLTFGGGTKVEIK | 11 | 1.49 | 1.49 | 1.11 | 1.37 | 1.52 | 22100 | 16400 | 12900 | 18400 | 22600 | 4.3 | 10.2 | 0.049 | 90900 | 4.9 | 9.6 | 708 | 586 | 618 | IL-2 in supernatant, 10 nM IgG [7]: 975 pg/mL; IL-2 in supernatant, 100 nM IgG [7]: 1410 pg/mL; IL-2 secretion fold change vs. IgG control, 0.01 nM IgG [7]: 1.37 fold; IL-2 secretion fold change vs. IgG control, 0.1 nM IgG [7]: 1.15 fold; IL-2 secretion fold change vs. IgG control, 1 nM IgG [7]: 1.23 fold; IL-2 secretion fold change vs. IgG control, 10 nM IgG [7]: 1.87 fold; IL-2 secretion fold change vs. IgG control, 100 nM IgG [7]: 2.28 fold
Antibody E, IgG1 format expressed in yeast (antibody, V domains shown, Tested in IgG1 format, expressed in yeast) VH: QVQLVQSGAEVKKPGASVKVSCKASGYTFTSNYMHWVRQAPGQGLEWMGIINPSEGSTGYAQKFQGRVTMTRDTSTSTVYMELSSLRSEDTAVYYCAKEGVADGYGLVDVWGQGTMVTVSS VL: EIVLTQSPATLSLSPGERATLSCRASQSVSSYLAWYQQKPGQAPRLLIYDASKRATGIPARFSGSGSGTDFTLTISSLEPEDFAVYYCDQRNNWPLTFGGGTKVEIK | 5.04 | 0.96 | 1.26 | 1.86 | 2.01 | 1.76 | 14300 | 13800 | 21600 | 27100 | 26300 | 1.2 | 4.59 | 0.022 | 38700 | 0.091 | 1.1 | 580 | 614 | 978 | Kd [8]: 0.33 nM; IL-2 in supernatant, 10 nM IgG [7]: 1360 pg/mL; IL-2 in supernatant, 100 nM IgG [7]: 1980 pg/mL; IL-2 secretion fold change vs. IgG control, 0.01 nM IgG [7]: 1.13 fold; IL-2 secretion fold change vs. IgG control, 0.1 nM IgG [7]: 1.21 fold; IL-2 secretion fold change vs. IgG control, 1 nM IgG [7]: 1.95 fold; IL-2 secretion fold change vs. IgG control, 10 nM IgG [7]: 2.61 fold; IL-2 secretion fold change vs. IgG control, 100 nM IgG [7]: 3.2 fold
Antibody C, IgG1 format expressed in yeast (antibody, V domains shown, Tested in IgG1 format, expressed in yeast) VH: QVQLVQSGAEVKKPGASVKVSCKASGYTFTAQYMHWVRQAPGQGLEWMGIINPSGGETGYAQKFQGRVTMTRDTSTSTVYMELSSLRSEDTAVYYCAKEGVADGYGLVDVWGQGTMVTVSS VL: EIVLTQSPATLSLSPGERATLSCRASQSVSSYLAWYQQKPGQAPRLLIYDASKRATGIPARFSGSGSGTDFTLTISSLEPEDFAVYYCDQRNNWPLTFGGGTKVEIK | 2.88 | 0.97 | 1.5 | 1.82 | 1.79 | 1.84 | 14400 | 16500 | 21100 | 24100 | 27400 | 1 | 4.12 | 0.0093 | 30100 | 0.12 | 1.9 | 519 | 587 | 914 | Kd [8]: 0.13 nM; IL-2 in supernatant, 10 nM IgG [7]: 1190 pg/mL; IL-2 in supernatant, 100 nM IgG [7]: 1620 pg/mL; IL-2 secretion fold change vs. IgG control, 0.01 nM IgG [7]: 1.01 fold; IL-2 secretion fold change vs. IgG control, 0.1 nM IgG [7]: 1.15 fold; IL-2 secretion fold change vs. IgG control, 1 nM IgG [7]: 1.83 fold; IL-2 secretion fold change vs. IgG control, 10 nM IgG [7]: 2.29 fold; IL-2 secretion fold change vs. IgG control, 100 nM IgG [7]: 2.62 fold
